Our source for the self-cleavage values is the RNAGym collection of RNA variant scans (doi:10.7554/elife.80360).

To fix the notation:
B1: HDV Ribozyme (parent)
chain: GGCCGGCAUGGUCCCAGCCUCCUCGCUGGCGCCGGCUGGGCAACAUUCCGAGGGGACCGUCCCCUCGGUAAUGGCGAAUGGGACCCA

The variants in this data set derive from B1. The experiment in a line: self-cleavage, relative activity (ratio to wild type); higher = more cleavage; co-transcriptional.
On to A42U A78G, for which the self-cleavage worked out at 0.264.
As to A42U G52A, the self-cleavage turned out to be 0.612.
The same measure for A42U G52C: 0.799; for A42U G52U: 0.592; for A42U C58U: 0.271.
A42U C58G: the self-cleavage was 0.443.
With A42U C58A the figure was 0.481; with A42G C57U, 0.527.
The same measure for A42U: 0.529; for A43C A71G: 0.762.
With A42U C49A the figure was 0.53.
As for A42U C49G, the self-cleavage was determined as 0.312.
In the case of A43C C75A, the self-cleavage was 0.298.
With A43C C75U the figure was 0.172; with A43C C75G, 0.314.
With A42G U47G the figure was 0.7; with A42U C44A, 0.688; with A42U G74U, 0.277.
The same measure for A42G G80A: 0.0997; for A42U A51U: 0.509.
As for A42U A51G, the self-cleavage is 0.508.
The same measure for A42U G68U: 0.162; for A42U G68A: 0.407.
With A42U G68C the figure was 0.397; with A42U G55C, 0.87.
The same measure for A42U U46C: 0.45; for A42U U46G: 0.287.
As to A42U U60A, the self-cleavage came to 0.665.
Turning to A42U C62A, the self-cleavage was 0.618.
In the case of A42U C62G, the self-cleavage is 0.6.
For the variant A42U G82C, the self-cleavage was 0.264.
For A42U G82U, the self-cleavage was determined as 0.102.
With A42U U65C the figure was 0.657; with A43C G50U, 0.432.
Consider A43C A45G, for which the self-cleavage turned out to be 0.643.
With A43C A45C the figure was 0.415.
Turning to A42G G82C, the self-cleavage was 0.0396.
The same measure for A42G G82U: 0.0504.
The same measure for A42G C85U: 0.767.
With A42G C85A the figure was 0.745.
A43C C85A: the self-cleavage came to 0.361.
For A43C C85U, the self-cleavage was 0.475.
The same measure for A43C C85G: 0.519.
The same measure for A42G C75G: 0; for A42U G53U: 0.698; for A42U G53C: 0.437.
The same measure for A42G U69C: 0.462.
As for A43C A83C, the self-cleavage was found to be 0.332.
The same measure for A43C A83U: 0.161; for A43C A83G: 0.0923; for A42G U72G: 0.35.
With A42G U72C the figure was 0.475.
With A42G C63A the figure was 0.359.
In the case of A42G C63U, the self-cleavage came to 0.633.
With A42G C63G the figure was 0.504.
Turning to A42G G52A, the self-cleavage is 0.483.
In the case of A42G G74U, the self-cleavage came to 0.0791.
With A42G G74C, the self-cleavage is 0.095.
With A42U C61A the figure was 0.47.
With A42U C61U the figure was 0.445; with A42U C61G, 0.77.
With A43C G52A the figure was 0.511; with A43C G52U, 0.402.
On to A43C G52C, for which the self-cleavage came out at 0.386.
As for A42G U65A, the self-cleavage was determined as 0.703.
For the variant A42G U65G, the self-cleavage came to 0.536.
The same measure for A42U A70C: 0.636.
With A42U A70G, the self-cleavage was found to be 0.571.
The same measure for A43C C48G: 0.449; for A43C C48U: 0.619.
With A43C C86G the figure was 0.399; with A43C C86A, 0.443.
With A43C C58G, the self-cleavage is 0.443.
With A43C C58U the figure was 0.671; with A42U G76C, 0.639.
Take A42U G76A: the self-cleavage turned out to be 0.764.
The same measure for A42G G54A: 0.567; for A42G G54C: 0.614.
The same measure for A42U C66U: 0.61; for A42U C66A: 0.511; for A42U C66G: 0.386.
As for A42G U46G, the self-cleavage was 0.0875.
With A42G C66U the figure was 0.591; with A42G G55U, 0.354; with A42U C64A, 0.639.
The same measure for A42U G73C: 0.267; for A43C C66A: 0.302.
With A43C C66U the figure was 0.306.
On to A43C C66G, for which the self-cleavage came out at 0.364.
With A43C A78G the figure was 0.0978; with A43C A78C, 0.0723.
The same measure for A43C A51U: 0.324; for A43C A51G: 0.499.
Turning to A43C A51C, the self-cleavage was found to be 0.604.
The same measure for A43C A56G: 0.404.
The same measure for A42G C62A: 0.35.
With A42G C62U the figure was 0.808; with A42G C64U, 0.45; with A43C A87G, 0.306.
Consider A43C A87C, for which the self-cleavage was determined as 0.407.
With A42G C86A the figure was 0.697; with A42G C86U, 0.697; with A42G C86G, 0.597.
With A42U A83G the figure was 0.177; with A42U A83C, 0.119; with A42U A83U, 0.142.
The same measure for A42U C86U: 0.58; for A42U G59C: 0.422; for A42U G59A: 0.845.
As to A42U G59U, the self-cleavage came to 0.595.
The same measure for A42U C75U: 0.0665; for A42U C75G: 0.125; for A42G C58U: 0.617.
With A42G C58G the figure was 0.554.
With A42G G73A the figure was 0.192.
Take A42G G73U: the self-cleavage worked out at 0.147.
With A43C C63G the figure was 0.185.
In the case of A43C C84U, the self-cleavage amounted to 0.135.
With A42G U79A the figure was 0.573; with A42U C48A, 0.485; with A42U C48U, 0.506.
The same measure for A42G G59C: 0.703; for A43C C49U: 0.684.
Take A43C C49A: the self-cleavage stood at 0.172.
With A42U C85U the figure was 0.541.
With A42U A77C the figure was 0.0519; with A42U A43C, 0.208.
Regarding A42U A43U, the self-cleavage came to 0.604.
A42G G81A: the self-cleavage was 0.106.
The same measure for A42G G81C: 0.0386.
With A42G A87U the figure was 0.479; with A42G A87C, 0.521; with A42G G67C, 0.365.
The same measure for A42U A87U: 0.56; for A43C C64U: 0.391; for A43C C64A: 0.38.
Take A42G C49U: the self-cleavage amounted to 0.489.
The same measure for A42G C49G: 0.358; for A42G C49A: 0.302.
The same measure for A43C C62A: 0.415.
The same measure for A43C C62G: 0.322.
With A43C C62U, the self-cleavage is 0.508.
The same measure for A42G U60G: 0.639.
The same measure for A42G U60C: 0.617; for A42G U60A: 0.302; for A42U A71G: 0.431.
On to A42U A71C, for which the self-cleavage was 0.342.
Turning to A42U G80U, the self-cleavage was 0.138.
With A42U G80C the figure was 0.166; with A43C, 0.498.
The same measure for A42G C84G: 0.314; for A43C A70G: 0.643; for A42G C44G: 0.
Regarding A42U G54A, the self-cleavage was determined as 0.441.
On to A42U G54C, for which the self-cleavage amounted to 0.381.
With A42U A45C the figure was 0.361.
With A42U A45G the figure was 0.237; with A42U C63G, 0.504; with A42U C63U, 0.506.
With A42G G68A the figure was 0.441; with A42G G68U, 0.403; with A42U C57U, 0.428.
Regarding A42U C57G, the self-cleavage came out at 0.489.
In the case of A42G G76C, the self-cleavage was 0.672.
The same measure for A42G G76U: 0.782; for A42U G50C: 0.285; for A42U G50U: 0.727.
